Patent US8859026B2, “Method for reducing methoxypyrazines in grapes and grape products” (Brock University, priority 2009, dated 2014)
Changes are numbered by the printed parent chain. Read-outs that look alike come from different tables or passages of the source.

Assays:
[1] = target: T1, piglet OBP (Sus scrofa, UniProt P81245); assay: Competitive fluorescent binding assay: displacement of 1-AMA from piglet OBP by odorants IPMP and IBMP; design: species or system porcine
T1 construct: made in house; host or cells: Pichia pastoris GS115 (pPIC9, alpha-mating factor secretion signal)
T1 sequence (P81245 with tags, fused parts or gaps): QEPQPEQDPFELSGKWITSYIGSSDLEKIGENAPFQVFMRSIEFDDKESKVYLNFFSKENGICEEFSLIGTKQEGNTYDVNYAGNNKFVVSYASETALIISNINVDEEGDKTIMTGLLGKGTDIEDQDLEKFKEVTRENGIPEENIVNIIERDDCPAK
Protocol: The interaction of odorants with AMA complex was examined by monitoring the decrease in fluorescence intensity of protein/1-AMA complex upon the addition of competitor compounds.
In competitive binding assays, 1-AMA (10 μM) was equilibrated with protein (2 μM) at pH 7.2 50 mM sodium phosphate buffer and pH 3.0 50 mM citrate phosphate buffer, and titrated with increasing concentrations of odorants (0-100 μM) solubilized in 10% v/v methanol.
The affinity of OBPs for odorants was estimated by plotting the decrease of intensity of 1-AMA fluorescence at the emission maximum, (22). Odorant concentrations causing fluorescence decay to half-maximal intensity (IC50 values) were determined from the plot of (I−Imin)/(I0−Imin) against the competitor concentration; I0 is the maximum of fluorescence intensity of the protein/1-AMA complex; I is the fluorescence intensity after addition of an aliquot of competitor, and Imin the fluorescence intensity at saturating concentration of the competitor.

[2] = Protein-MP binding reaction, complex removed by 10 kDa cut-off PES membrane filtration, free IBMP by HS SPME GC/MS
Protocol: (§1) The freeze dried preparations of pIOBP and mMUPII were resuspended in phosphate citrate buffers at pH 3.0, 3.5 or 4.0 or phosphate buffer at pH 7.2, to final concentrations between 40-50 μM. The protein solutions, in a 2 ml volume, were spiked with IBMP or IPMP at 300 ng/l and allowed to incubate in a glass vial for 2 h, at RT on a gel shaker. In binding reactions using bentonite to remove the protein-MP complex, the binding reactions were performed in pH 3.5 and pH 4 using bentonite (3 g/l) to remove the protein and protein-ligand complex. To remove any residual bentonite from the reaction, samples were also filtered through a 0.22 μm Durapore filter unit (Millipore). In another assay using a 10 kDa cutoff filter to remove the protein-MP complex, the binding reactions were performed in buffer at pH 3 and pH 7.2. The reactions were centrifuged through a 10 KDa molecular weight cut-off (10MWCO) Omega filter unit made of polyethersulfone (PALL Life Sciences) to separate the proteins and bound MP from the free MP fraction. The concentration of free (unbound) MP fraction was then determined using HS SPME GC/MS. The limit of quantification for the compound IBMP was determined to be 6 ng/L and for IPMP was 2 ng/L, based on 10 times signal/noise. The limit of detection for MPs in the present system is 1.8 ng/L for IBMP and 0.6 ng/L for IPMP as calculated based on 3 times the signal/noise ratio. The data has been reported to the limit of quantification in the figures.
(§2) For the membrane filtration trials, the starting concentration of MPs in the reaction were tested, the free MPs after the 10MWCO filtration without addition of protein were tested, and the free MPs in solution after the protein binding reaction and filtration were tested.

[3] = physiological pH, published values; read-out: apparent Kd for IBMP / MPs, literature; cited from earlier work
[4] = Protein-MP binding reaction, complex removed by bentonite fining and 0.22 μm filtration, free IBMP by GC/MS; conditions: Chardonnay Juice at pH 3.5
Protocol: as §1, with “The” for “The freeze dried preparations of pIOBP and mMUPII were resuspended in phosphate citrate buffers at pH 3.0, 3.5 or 4.0 or phosphate buffer at pH 7.2, to final concentrations between 40-50 μM. The”, “figures. […]” for “figures.”

[5] = Protein-MP binding reaction, complex removed by 10 kDa cut-off PES membrane filtration, free IPMP by HS SPME GC/MS
Protocol: as §1, §2

[6] = Intrinsic fluorescence of human OBPIIaα at pH 7.2 and pH 3.0; type: physicochemical; conditions: pH 3.0 vs pH 7.2
[7] = Binding of human OBPIIaα to fluorescent probes 1,8 ANS and 1-AMA; conditions: pH 7.2 and 3.0
Protocol: The excitation wavelength of 372 nm was used for ANS and fluorescence emission intensity was monitored at 475 nm. […] The excitation wavelength of 290 nm was used and fluorescence emission intensity was monitored at 490 nm.
Fluorescence ligand binding experiments were performed on a Photon Technology International (London, Canada) Quanta Master Model QM2001 fluorometer at room temperature (19-20° C.), using 1 cm light path quartz cuvettes (Hellma). Slit width of 2 nm was used for excitation and emission for assaying a proteins except ratOBP1F, for which excitation and emission slit width of 6 nm was used.

[8] = pH of binding: 7.4; cited from earlier work

Molecule: COc1nccnc1C(C)C [IPMP, 2-isopropyl-3-methoxypyrazine]
- IC50 ([1]; pH 3.0): 5.98 µM
- Kd ([1]; pH 3.0, calculated from IC50, read-out: Kd for piglet OBP): 2.34 µM
- Kd ([1]; pH 3, read-out: apparent Kd for pIOBP): 2.1 µM
- higher affinity for pIOBP at pH 3.0 compared with pH 7.2 ([1]; pH 3.0 vs pH 7.2): about 2 fold
- IC50 ([1]; pH 7.2): 32.8 µM
- Kd ([1]; pH 7.2, calculated from IC50, read-out: Kd for piglet OBP): 4.46 µM
- Kd ([1]; pH 7.2, read-out: apparent Kd for pIOBP): 4.5 µM

B1: mouse MUPII: mouse major urinary protein isoform II (Genbank AJ309921, Uniprot P11589), recombinant from P. pastoris (protein, UniProt P11589 19-180, looked up)
Major urinary protein 2: EEASSTGRNFNVEKINGEWHTIILASDKREKIEDNGNFRLFLEQIHVLEKSLVLKFHTVRDEECSELSMVADKTEKAGEYSVTYDGFNTFTIPKTDYDNFLMAHLINEKDGETFQLMGLYGREPDLSSDIKERFAKLCEEHGILRENIIDLSNANRCLQARE
modifications: recombinant from Pichia pastoris
- IBMP concentration after protein treatment and 10 MWCO filtration ([2]; Chardonnay juice, limit of quantification): 6 ng/L
- IBMP concentration after protein treatment and 10 MWCO filtration ([2]; pH 3.0 buffer, 300 ng/l spike, limit of quantification): 6 ng/L
- IBMP concentration after protein treatment and 10 MWCO filtration ([2]; pH 7.2 buffer, 300 ng/l spike): 11 ng/L
- Kd [3]: 0.94 µM
- IBMP reduction by protein beyond bentonite and filter [4]: further reduced
- IPMP concentration after protein treatment and 10 MWCO filtration ([5]; juice): 4 ng/L
- IPMP concentration after protein treatment and 10 MWCO filtration ([5]; pH 3.0 buffer): 3 ng/L
- IPMP concentration after protein treatment and 10 MWCO filtration ([5]; pH 7.2 buffer): 3 ng/L

B2: human OBPIIaα: human odorant binding protein IIa alpha (Genbank AJ251021, UniProt Q9NY56), recombinant from P. pastoris (protein, UniProt Q9NY56 16-170, looked up)
Odorant-binding protein 2a: LSFTLEEEDITGTWYVKAMVVDKDFPEDRRPRKVSPVKVTALGGGNLEATFTFMREDRCIQKKILMRKTEEPGKFSAYGGRKLIYLQELPGTDDYVFYCKDQRRGGLRYMGKLVGRNPNTNLEALEEFKKLVQHKGLSEEDIFMPLQTGSCVLEH
modifications: recombinant from Pichia pastoris
- protein conformation on acidification (tryptophan emission maximum) [6]: does not modify protein conformation
- binding to fluorescent probes [7]: shows binding
- Kd [3]: 0.9 to 1.1 µM

B3: mouse MUPI: mouse major urinary protein I (Uniprot P11588), differs from MUPII by three amino acid residues (protein, UniProt P11588 19-180, looked up)
Major urinary protein 1: B1 Major urinary protein 2 with K50N, K136Q, E140K
- binding of methoxypyrazines [8]: binds both IPMP and IBMP
